{"source": "patent US20250268980A1", "about": "“AN ANTICANCER THERAPY TARGETING RAS AND OTHER ONCOGENIC SIGNALS BY INHIBITION OF DYNAMIC BLEBBING AND/OR SEPTINS” (THE BOARD OF REGENTS OF THE UNIVERSITY OF TEXAS SYSTEM, priority 2022, published 2025)", "key": {"SEPTIN10 (human) [1]": {"target": "SEPTIN10 (human) (UniProt Q9P0V9)", "sequence (Q9P0V9 whole entry)": "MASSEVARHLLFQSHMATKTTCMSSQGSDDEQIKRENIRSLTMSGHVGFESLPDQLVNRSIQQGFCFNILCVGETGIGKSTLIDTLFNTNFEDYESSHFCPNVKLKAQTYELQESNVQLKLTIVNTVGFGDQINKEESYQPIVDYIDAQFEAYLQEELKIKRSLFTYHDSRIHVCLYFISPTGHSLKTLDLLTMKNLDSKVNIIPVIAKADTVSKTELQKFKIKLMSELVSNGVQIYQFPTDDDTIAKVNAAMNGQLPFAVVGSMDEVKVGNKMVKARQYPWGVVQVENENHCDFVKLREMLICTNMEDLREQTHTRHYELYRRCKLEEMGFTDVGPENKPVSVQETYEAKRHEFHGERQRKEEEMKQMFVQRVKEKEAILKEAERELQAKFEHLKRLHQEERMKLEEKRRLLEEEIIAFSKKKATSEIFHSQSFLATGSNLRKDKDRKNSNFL", "experiment": "HaloLink pulldown from MV3 cells, LC-MS/MS"}, "SEPTIN11 (human) [2]": {"target": "SEPTIN11 (human) (UniProt Q9NVA2)", "sequence (Q9NVA2 2-429 limits assumed)": "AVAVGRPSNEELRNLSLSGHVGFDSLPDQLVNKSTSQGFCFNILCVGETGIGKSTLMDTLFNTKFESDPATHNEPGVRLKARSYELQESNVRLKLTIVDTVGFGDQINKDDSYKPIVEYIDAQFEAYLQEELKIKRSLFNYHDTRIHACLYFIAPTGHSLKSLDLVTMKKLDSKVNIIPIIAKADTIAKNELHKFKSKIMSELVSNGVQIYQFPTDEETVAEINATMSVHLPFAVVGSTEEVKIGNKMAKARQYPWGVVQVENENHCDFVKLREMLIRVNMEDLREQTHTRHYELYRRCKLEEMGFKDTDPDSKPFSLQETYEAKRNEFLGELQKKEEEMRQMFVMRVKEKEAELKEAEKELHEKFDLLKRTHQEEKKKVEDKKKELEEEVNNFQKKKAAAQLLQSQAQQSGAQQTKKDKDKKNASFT", "experiment": "HaloLink pulldown from MV3 cells, LC-MS/MS"}, "SEPTIN2 (human) [3]": {"target": "SEPTIN2 (human) (UniProt Q15019)", "sequence (Q15019 whole entry)": "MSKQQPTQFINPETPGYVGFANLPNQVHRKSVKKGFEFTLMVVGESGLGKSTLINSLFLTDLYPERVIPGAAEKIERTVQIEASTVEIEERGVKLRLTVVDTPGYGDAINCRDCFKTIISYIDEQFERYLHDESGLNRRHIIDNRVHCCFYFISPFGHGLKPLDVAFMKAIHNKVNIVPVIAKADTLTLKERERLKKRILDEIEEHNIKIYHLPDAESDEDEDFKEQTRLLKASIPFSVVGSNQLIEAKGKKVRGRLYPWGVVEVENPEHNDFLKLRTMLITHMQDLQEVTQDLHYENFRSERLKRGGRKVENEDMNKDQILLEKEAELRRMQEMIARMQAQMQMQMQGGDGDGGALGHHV", "experiment": "HaloLink pulldown from MV3 cells, LC-MS/MS"}, "SEPTIN6 (human) [4]": {"target": "SEPTIN6 (human) (UniProt Q14141)", "sequence (Q14141 2-434 limits assumed)": "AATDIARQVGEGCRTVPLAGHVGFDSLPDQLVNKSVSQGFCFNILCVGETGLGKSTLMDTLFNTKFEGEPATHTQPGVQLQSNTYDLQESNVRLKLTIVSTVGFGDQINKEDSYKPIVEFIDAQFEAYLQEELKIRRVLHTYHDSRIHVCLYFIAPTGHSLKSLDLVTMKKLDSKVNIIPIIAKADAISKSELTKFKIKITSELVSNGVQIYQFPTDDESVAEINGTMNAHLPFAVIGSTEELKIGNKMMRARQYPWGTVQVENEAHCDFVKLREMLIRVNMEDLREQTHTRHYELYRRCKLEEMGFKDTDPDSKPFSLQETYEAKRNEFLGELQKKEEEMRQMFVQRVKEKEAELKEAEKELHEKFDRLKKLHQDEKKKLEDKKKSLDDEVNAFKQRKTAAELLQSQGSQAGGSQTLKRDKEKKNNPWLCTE", "experiment": "HaloLink pulldown from MV3 cells, LC-MS/MS"}, "SEPTIN7 (human) [5]": {"target": "SEPTIN7 (human) (UniProt Q16181)", "sequence (Q16181 2-437 limits assumed)": "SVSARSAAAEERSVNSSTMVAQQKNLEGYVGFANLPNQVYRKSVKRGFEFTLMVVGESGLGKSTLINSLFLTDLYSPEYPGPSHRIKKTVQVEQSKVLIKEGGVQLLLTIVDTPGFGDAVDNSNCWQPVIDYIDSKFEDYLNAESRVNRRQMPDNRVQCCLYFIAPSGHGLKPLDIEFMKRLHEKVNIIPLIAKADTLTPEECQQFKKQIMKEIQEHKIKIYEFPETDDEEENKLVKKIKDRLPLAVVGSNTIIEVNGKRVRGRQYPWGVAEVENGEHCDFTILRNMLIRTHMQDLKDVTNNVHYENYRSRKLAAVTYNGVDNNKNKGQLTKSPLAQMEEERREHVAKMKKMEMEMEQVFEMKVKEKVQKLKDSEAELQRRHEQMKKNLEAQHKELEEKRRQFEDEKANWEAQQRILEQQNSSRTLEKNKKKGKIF", "experiment": "HaloLink pulldown from MV3 cells, LC-MS/MS"}, "SEPTIN8 (human) [6]": {"target": "SEPTIN8 (human) (UniProt Q92599)", "sequence (Q92599 2-483 limits assumed)": "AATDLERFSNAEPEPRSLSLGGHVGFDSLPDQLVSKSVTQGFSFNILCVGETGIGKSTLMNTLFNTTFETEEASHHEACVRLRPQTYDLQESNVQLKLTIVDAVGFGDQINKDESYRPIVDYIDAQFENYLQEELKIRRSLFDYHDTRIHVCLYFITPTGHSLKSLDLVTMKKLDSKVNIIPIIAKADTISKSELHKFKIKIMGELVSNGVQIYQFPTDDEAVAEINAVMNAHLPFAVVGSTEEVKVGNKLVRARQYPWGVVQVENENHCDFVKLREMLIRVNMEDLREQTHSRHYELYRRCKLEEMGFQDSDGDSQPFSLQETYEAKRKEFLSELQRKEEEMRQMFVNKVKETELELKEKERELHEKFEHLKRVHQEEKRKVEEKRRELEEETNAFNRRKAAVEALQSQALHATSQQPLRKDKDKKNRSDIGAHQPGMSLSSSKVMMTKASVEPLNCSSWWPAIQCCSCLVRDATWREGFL", "experiment": "HaloLink pulldown from MV3 cells, LC-MS/MS"}, "SEPTIN9 (human) [7]": {"target": "SEPTIN9 (human) (UniProt Q9UHD8)", "sequence (Q9UHD8 whole entry)": "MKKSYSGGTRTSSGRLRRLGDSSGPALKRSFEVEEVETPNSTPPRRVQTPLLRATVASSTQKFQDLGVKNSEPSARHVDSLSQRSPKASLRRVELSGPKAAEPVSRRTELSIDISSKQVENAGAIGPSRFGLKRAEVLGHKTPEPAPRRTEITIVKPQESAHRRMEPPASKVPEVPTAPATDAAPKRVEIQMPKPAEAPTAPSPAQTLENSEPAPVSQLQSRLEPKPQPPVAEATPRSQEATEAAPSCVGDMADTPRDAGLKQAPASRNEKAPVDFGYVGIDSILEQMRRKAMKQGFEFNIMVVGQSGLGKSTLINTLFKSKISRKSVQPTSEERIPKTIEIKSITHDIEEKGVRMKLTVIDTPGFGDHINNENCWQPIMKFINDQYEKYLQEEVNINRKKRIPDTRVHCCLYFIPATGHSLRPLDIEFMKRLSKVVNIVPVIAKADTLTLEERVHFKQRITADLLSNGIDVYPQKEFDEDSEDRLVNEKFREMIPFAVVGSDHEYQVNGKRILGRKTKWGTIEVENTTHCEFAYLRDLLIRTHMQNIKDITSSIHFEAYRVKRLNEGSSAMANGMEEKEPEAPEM", "experiment": "HaloLink pulldown from MV3 cells, LC-MS/MS"}, "SEPTIN10 (human) [8]": {"target": "SEPTIN10 (human) (UniProt Q9P0V9)", "experiment": "HaloLink pulldown from unperturbed A375 cells, LC-MS/MS"}, "SEPTIN11 (human) [9]": {"target": "SEPTIN11 (human) (UniProt Q9NVA2)", "experiment": "HaloLink pulldown from unperturbed A375 cells, LC-MS/MS"}, "SEPTIN2 (human) [10]": {"target": "SEPTIN2 (human) (UniProt Q15019)", "experiment": "HaloLink pulldown from unperturbed A375 cells, LC-MS/MS"}, "SEPTIN6 (human) [11]": {"target": "SEPTIN6 (human) (UniProt Q14141)", "experiment": "HaloLink pulldown from unperturbed A375 cells, LC-MS/MS"}, "SEPTIN7 (human) [12]": {"target": "SEPTIN7 (human) (UniProt Q16181)", "experiment": "HaloLink pulldown from unperturbed A375 cells, LC-MS/MS"}, "SEPTIN8 (human) [13]": {"target": "SEPTIN8 (human) (UniProt Q92599)", "experiment": "HaloLink pulldown from unperturbed A375 cells, LC-MS/MS"}, "SEPTIN9 (human) [14]": {"target": "SEPTIN9 (human) (UniProt Q9UHD8)", "experiment": "HaloLink pulldown from unperturbed A375 cells, LC-MS/MS"}}}
{"substance": "mouse SEPT6-HALO (from UniProt Q9R1T4 2-434)", "values": [{"measurement": "% of total protein abundance", "setting": "SEPTIN10 (human) [1]", "result": 0.28, "unit": "%"}, {"measurement": "% of total septin abundance", "setting": "SEPTIN10 (human) [1]", "result": 3.19, "unit": "%"}, {"measurement": "fold change between lysate and pulldown (% of total protein abundance)", "setting": "SEPTIN10 (human) [1]", "result": 7, "unit": "fold"}, {"measurement": "fold change between lysate and pulldown (% of total septin abundance)", "setting": "SEPTIN10 (human) [1]", "result": -5.32, "unit": "fold"}, {"measurement": "% of total protein abundance", "setting": "SEPTIN11 (human) [2]", "result": 0.08, "unit": "%"}, {"measurement": "% of total septin abundance", "setting": "SEPTIN11 (human) [2]", "result": 0.94, "unit": "%"}, {"measurement": "% of total protein abundance", "setting": "SEPTIN2 (human) [3]", "result": 2.43, "unit": "%"}, {"measurement": "% of total septin abundance", "setting": "SEPTIN2 (human) [3]", "result": 30.1, "unit": "%"}, {"measurement": "fold change between lysate and pulldown (% of total protein abundance)", "setting": "SEPTIN2 (human) [3]", "result": 60.8, "unit": "fold"}, {"measurement": "fold change between lysate and pulldown (% of total septin abundance)", "setting": "SEPTIN2 (human) [3]", "result": 1.5, "unit": "fold"}, {"measurement": "% of total protein abundance", "setting": "SEPTIN6 (human) [4]", "result": 1.03, "unit": "%"}, {"measurement": "% of total septin abundance", "setting": "SEPTIN6 (human) [4]", "result": 12.8, "unit": "%"}, {"measurement": "fold change between lysate and pulldown (% of total protein abundance)", "setting": "SEPTIN6 (human) [4]", "result": 11.4, "unit": "fold"}, {"measurement": "fold change between lysate and pulldown (% of total septin abundance)", "setting": "SEPTIN6 (human) [4]", "result": -3.2, "unit": "fold"}, {"measurement": "% of total protein abundance", "setting": "SEPTIN7 (human) [5]", "result": 2.41, "unit": "%"}, {"measurement": "% of total septin abundance", "setting": "SEPTIN7 (human) [5]", "result": 29.9, "unit": "%"}, {"measurement": "fold change between lysate and pulldown (% of total protein abundance)", "setting": "SEPTIN7 (human) [5]", "result": 120, "unit": "fold"}, {"measurement": "fold change between lysate and pulldown (% of total septin abundance)", "setting": "SEPTIN7 (human) [5]", "result": 3.39, "unit": "fold"}, {"measurement": "% of total protein abundance", "setting": "SEPTIN8 (human) [6]", "result": "< 0.01", "unit": "%"}, {"measurement": "% of total septin abundance", "setting": "SEPTIN8 (human) [6]", "result": 0.09, "unit": "%"}, {"measurement": "fold change between lysate and pulldown (% of total septin abundance)", "setting": "SEPTIN8 (human) [6]", "result": -3.44, "unit": "fold"}, {"measurement": "% of total protein abundance", "setting": "SEPTIN9 (human) [7]", "result": 1.85, "unit": "%"}, {"measurement": "% of total septin abundance", "setting": "SEPTIN9 (human) [7]", "result": 23, "unit": "%"}, {"measurement": "fold change between lysate and pulldown (% of total protein abundance)", "setting": "SEPTIN9 (human) [7]", "result": 61.7, "unit": "fold"}, {"measurement": "fold change between lysate and pulldown (% of total septin abundance)", "setting": "SEPTIN9 (human) [7]", "result": 1.78, "unit": "fold"}, {"measurement": "% of total protein abundance", "setting": "SEPTIN10 (human) [8]", "result": 0.51, "unit": "%"}, {"measurement": "% of total septin abundance", "setting": "SEPTIN10 (human) [8]", "result": 7.23, "unit": "%"}, {"measurement": "fold change between lysate and pulldown (% of total septin abundance)", "setting": "SEPTIN10 (human) [8]", "result": 3.77, "unit": "fold"}, {"measurement": "% of total protein abundance", "setting": "SEPTIN11 (human) [9]", "result": "< 0.01", "unit": "%"}, {"measurement": "% of total septin abundance", "setting": "SEPTIN11 (human) [9]", "result": 0.12, "unit": "%"}, {"measurement": "fold change between lysate and pulldown (% of total septin abundance)", "setting": "SEPTIN11 (human) [9]", "result": -44.7, "unit": "fold"}, {"measurement": "% of total protein abundance", "setting": "SEPTIN2 (human) [10]", "result": 1.81, "unit": "%"}, {"measurement": "% of total septin abundance", "setting": "SEPTIN2 (human) [10]", "result": 25.7, "unit": "%"}, {"measurement": "fold change between lysate and pulldown (% of total protein abundance)", "setting": "SEPTIN2 (human) [10]", "result": 60.3, "unit": "fold"}, {"measurement": "fold change between lysate and pulldown (% of total septin abundance)", "setting": "SEPTIN2 (human) [10]", "result": -1.03, "unit": "fold"}, {"measurement": "% of total protein abundance", "setting": "SEPTIN6 (human) [11]", "result": 1.67, "unit": "%"}, {"measurement": "% of total septin abundance", "setting": "SEPTIN6 (human) [11]", "result": 23.8, "unit": "%"}, {"measurement": "fold change between lysate and pulldown (% of total protein abundance)", "setting": "SEPTIN6 (human) [11]", "result": 55.7, "unit": "fold"}, {"measurement": "fold change between lysate and pulldown (% of total septin abundance)", "setting": "SEPTIN6 (human) [11]", "result": -1.33, "unit": "fold"}, {"measurement": "% of total protein abundance", "setting": "SEPTIN7 (human) [12]", "result": 1.48, "unit": "%"}, {"measurement": "% of total septin abundance", "setting": "SEPTIN7 (human) [12]", "result": 21.1, "unit": "%"}, {"measurement": "fold change between lysate and pulldown (% of total protein abundance)", "setting": "SEPTIN7 (human) [12]", "result": 74, "unit": "fold"}, {"measurement": "fold change between lysate and pulldown (% of total septin abundance)", "setting": "SEPTIN7 (human) [12]", "result": 1.35, "unit": "fold"}, {"measurement": "% of total protein abundance", "setting": "SEPTIN8 (human) [13]", "result": "< 0.01", "unit": "%"}, {"measurement": "% of total septin abundance", "setting": "SEPTIN8 (human) [13]", "result": 0.02, "unit": "%"}, {"measurement": "% of total protein abundance", "setting": "SEPTIN9 (human) [14]", "result": 1.55, "unit": "%"}, {"measurement": "% of total septin abundance", "setting": "SEPTIN9 (human) [14]", "result": 22.1, "unit": "%"}, {"measurement": "fold change between lysate and pulldown (% of total protein abundance)", "setting": "SEPTIN9 (human) [14]", "result": 77.5, "unit": "fold"}, {"measurement": "fold change between lysate and pulldown (% of total septin abundance)", "setting": "SEPTIN9 (human) [14]", "result": 1.62, "unit": "fold"}]}
